The record followed here is patent publication US10286078B2, “Modified therapeutic agents and compositions thereof” (THE CALIFORNIA INSTITUTE FOR BIOMEDICAL RESEARCH, priority 2013, dated 2019).

pEC50: −log10 of the molar value. Like-named read-outs stand apart in the source and are kept apart here. Where no end group is shown, it is not given here.

The target of one series is T1, human Nav1.7 (Homo sapiens, UniProt Q15858).
T1 construct: host or cells: HEK293
The series can be described thus: NaV 1.7 current measurement on IonFlux HT. Conditions: HEK293 cells overexpressing alpha and beta-1 subunits of human Nav1.7. Format: cell-based. The method, then: Toxin-550 peptides were assayed on the IonFlux HT using standard running conditions for measurement of NaV 1.7 current. Briefly, HEK293 cells overexpressing the alpha and beta-1 subunits of human Nav1.7 (PrecisION, Millipore) were trypsinized, brought up in serum-free media and allowed to shake at room temperature for 30 minutes. Compounds were diluted into standard extracellular Ringer's solution (ECS) at desired concentration. Cells were washed once with ECS and then brought up in ECS at a concentration of 4 million cells/mL. IonFlux HT plate was set up according to standard protocols.
NaV 1.7 current was measured on the IonFlux according to the following voltage step protocol:
1. The cells were held at −90 mV with a period of 10 seconds.
2. The cells were stepped from −90 mV to −120 mV for 100 ms. • a. then to −10 mV for 30 ms and • b. then back to −90 mV for 30 ms.
Baseline current was allowed to stabilize for 5 minutes, then a control baseline (ECS only) was established. Compound was applied for 20 minutes, and then a positive control (peptide NaV1.7 blocker) was applied.
Leak subtraction was then performed on the data and the resulting currents are analyzed as follows: • 1. […] For a given time (e.g. 10 minutes post-compound addition), percent block was calculated as I/Imax.

Another series addresses T2, LGR7 (Homo sapiens, UniProt Q9HBX9).
T2 construct: expressed in transfected cells
T2 sequence (Q9HBX9 1-757): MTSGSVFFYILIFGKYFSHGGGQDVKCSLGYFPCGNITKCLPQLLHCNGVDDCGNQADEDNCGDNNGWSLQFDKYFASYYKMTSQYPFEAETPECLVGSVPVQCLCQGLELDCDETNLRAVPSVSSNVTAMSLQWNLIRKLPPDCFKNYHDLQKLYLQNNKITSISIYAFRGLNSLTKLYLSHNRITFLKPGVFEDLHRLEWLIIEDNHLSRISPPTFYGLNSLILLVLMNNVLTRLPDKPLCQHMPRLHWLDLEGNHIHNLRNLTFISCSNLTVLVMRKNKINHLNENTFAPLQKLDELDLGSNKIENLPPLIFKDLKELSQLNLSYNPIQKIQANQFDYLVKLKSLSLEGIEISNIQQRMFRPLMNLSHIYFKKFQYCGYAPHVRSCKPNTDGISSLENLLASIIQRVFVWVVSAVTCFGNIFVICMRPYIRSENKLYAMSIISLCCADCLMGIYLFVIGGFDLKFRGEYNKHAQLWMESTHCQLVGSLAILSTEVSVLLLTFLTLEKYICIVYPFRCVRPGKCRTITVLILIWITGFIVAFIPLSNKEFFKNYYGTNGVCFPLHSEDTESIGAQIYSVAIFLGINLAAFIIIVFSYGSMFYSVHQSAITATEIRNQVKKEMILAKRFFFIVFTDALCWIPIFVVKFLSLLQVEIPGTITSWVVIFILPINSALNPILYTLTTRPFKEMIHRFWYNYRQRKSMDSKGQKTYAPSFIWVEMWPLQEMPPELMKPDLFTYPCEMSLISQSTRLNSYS
Put plainly: LGR7 CRE-Luc reporter gene assay (relaxin bioactivity). Type of series: cell-based. Conditions: HEK293T cells expressing LGR7 and CRE-Luc; EC50 after non-linear curve fitting. How it is done:
Relaxin 2 signals through leucine-rich repeat-containing GPCRs (i.e. LGR7 (RFXR1)). The bioactivity of wild-type relaxin peptides was determined based on the stimulation of adenylate cyclase activity in HEK293T cells stably expressing recombinant LGR7. Stable LGR7 expressing cells were maintained in Dulbecco's modified Eagle's medium/F-12 media supplemented with […] Zeocin (Invitrogen). A cyclic AMP responsive element driven luciferase (CRE-Luc) reporter line was generated by lentiviral transduction of these LGR7 expressing HEK293T cells with CRE-Luc lentivirus (Qiagen) and selected with puromycine (2 μg/mL) for two weeks. A reporter gene assay was used to detect cAMP levels and LGR7 activation by relaxin.
Assay detail: HEK293T cells expressing LGR7 and CRE-Luc are seeded at a density of 5×10^3 cells per well in 50 μl of Dulbecco's modified Eagle's medium/F-12 medium containing 10% FBS in 384-well solid bottom white plates. Cells are pre-incubated at 37° C. for overnight. Different concentrations of relaxin peptides (from 0.01 nM to 1000 nM) were added in triplicate, incubated for 18 hours and luciferase activity was detected by adding […] of Bright Glo (Promega). Luminescence was recorded on Envision (Perkin Elmer). EC50 is calculated after non-linear curve fitting (see FIG. 3 for relaxin H2 dose response curve).
Background: In a reporter assay the amount or activity of a reporter protein is the signal.

Series [1] can be described thus: In vivo pharmacokinetic (PK) study for half-life extension. Conditions: mouse, plasma, mice. How it is done: Lipid conjugated relaxin or other therapeutic agents are dosed in mice using sc, po, iv dosing. Plasma levels of TA are determined by ms, lgr7, glp1r and/or gcgr activation at different time points (e.g., i.v. PK 5 min, 0.5 h, 1 h, 2 h 4 h, 8 h, 24 h, 48 h, 96 h & 144 h and s.c. PK. 15 min, 0.5 h, 1 h, 2 h, 4 h, 8 h, 24 h, 48 h, 96 h and 144 h). Select PK data are shown in FIGS. 11, 12, and 15, and Table 2.

Setting [2] is: iv, i.v., read-out: Half-life (hours) i.v. (converted).
Where [3] appears, read: sc, s.c., read-out: Half-life (hours) s.c. (converted).

T1 sequence (Q15858 whole entry): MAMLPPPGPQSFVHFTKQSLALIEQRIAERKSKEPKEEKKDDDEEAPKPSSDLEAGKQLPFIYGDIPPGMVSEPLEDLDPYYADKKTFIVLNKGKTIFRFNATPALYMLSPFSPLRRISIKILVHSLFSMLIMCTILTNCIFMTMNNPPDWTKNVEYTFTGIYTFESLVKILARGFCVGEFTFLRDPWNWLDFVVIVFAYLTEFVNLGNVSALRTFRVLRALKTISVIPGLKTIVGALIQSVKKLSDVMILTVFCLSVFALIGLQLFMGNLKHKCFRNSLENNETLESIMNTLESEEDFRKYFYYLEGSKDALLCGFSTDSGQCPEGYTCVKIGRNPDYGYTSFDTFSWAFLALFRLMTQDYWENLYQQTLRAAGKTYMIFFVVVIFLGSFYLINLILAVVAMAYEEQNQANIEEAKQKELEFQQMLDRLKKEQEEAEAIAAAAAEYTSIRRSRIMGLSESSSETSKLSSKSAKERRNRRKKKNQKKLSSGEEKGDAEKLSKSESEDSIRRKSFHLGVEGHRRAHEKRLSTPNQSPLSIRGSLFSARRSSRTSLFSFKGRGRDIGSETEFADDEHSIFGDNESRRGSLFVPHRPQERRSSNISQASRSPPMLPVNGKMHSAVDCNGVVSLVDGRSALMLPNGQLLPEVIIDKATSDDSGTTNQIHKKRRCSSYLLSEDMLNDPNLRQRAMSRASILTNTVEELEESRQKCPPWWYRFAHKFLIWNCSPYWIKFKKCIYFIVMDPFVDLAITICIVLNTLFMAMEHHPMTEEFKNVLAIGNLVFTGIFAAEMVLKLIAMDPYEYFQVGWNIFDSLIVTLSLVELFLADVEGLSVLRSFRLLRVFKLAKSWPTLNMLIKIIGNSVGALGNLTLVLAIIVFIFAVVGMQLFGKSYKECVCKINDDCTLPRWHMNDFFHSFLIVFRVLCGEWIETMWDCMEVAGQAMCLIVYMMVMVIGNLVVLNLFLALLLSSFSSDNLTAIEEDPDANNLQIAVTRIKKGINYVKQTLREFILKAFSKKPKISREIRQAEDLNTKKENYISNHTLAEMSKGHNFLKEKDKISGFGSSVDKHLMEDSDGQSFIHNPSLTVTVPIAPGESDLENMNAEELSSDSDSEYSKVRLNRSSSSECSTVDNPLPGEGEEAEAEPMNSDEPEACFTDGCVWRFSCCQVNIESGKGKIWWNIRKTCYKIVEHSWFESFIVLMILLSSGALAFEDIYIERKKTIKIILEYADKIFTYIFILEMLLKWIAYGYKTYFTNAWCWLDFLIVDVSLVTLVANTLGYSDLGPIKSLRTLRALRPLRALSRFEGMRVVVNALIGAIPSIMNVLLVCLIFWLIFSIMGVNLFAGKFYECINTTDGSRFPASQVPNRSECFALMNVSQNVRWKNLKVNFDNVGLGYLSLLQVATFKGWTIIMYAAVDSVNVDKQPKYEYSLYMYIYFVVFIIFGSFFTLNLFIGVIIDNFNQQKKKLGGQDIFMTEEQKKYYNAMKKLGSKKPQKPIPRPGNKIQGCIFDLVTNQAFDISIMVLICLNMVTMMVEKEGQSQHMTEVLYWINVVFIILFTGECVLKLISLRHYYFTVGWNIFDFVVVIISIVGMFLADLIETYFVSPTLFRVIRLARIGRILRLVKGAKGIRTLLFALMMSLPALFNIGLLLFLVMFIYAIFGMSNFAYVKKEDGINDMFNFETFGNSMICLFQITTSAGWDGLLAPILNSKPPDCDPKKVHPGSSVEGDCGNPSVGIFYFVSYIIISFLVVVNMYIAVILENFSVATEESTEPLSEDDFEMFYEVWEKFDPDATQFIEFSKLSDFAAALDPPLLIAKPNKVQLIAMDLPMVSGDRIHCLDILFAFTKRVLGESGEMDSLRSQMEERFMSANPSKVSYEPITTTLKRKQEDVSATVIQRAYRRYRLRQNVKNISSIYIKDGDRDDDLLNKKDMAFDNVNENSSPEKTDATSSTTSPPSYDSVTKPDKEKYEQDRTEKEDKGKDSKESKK
T1 sequence (Q07699 19-218, further chain): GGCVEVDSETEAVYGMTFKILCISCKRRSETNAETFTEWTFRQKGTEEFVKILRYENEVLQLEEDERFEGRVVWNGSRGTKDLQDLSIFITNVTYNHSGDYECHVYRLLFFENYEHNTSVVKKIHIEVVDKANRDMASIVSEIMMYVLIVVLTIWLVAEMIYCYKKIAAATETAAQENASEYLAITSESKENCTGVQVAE

Consider “550-4-GSCGG-FA1: 550-4-GSCGG (SEQ ID NO: 28) with lipid FA1 (GSCGGECIGMFKSCDPENDKCCKGRTCSRKHRWCKYKL; cysteine pairing not given here; also: lipid FA1)”, for which, in the series with human Nav1.7, the “Activity: % block at 100 nM” value was determined as 85% block.

What is called pEC50 is the EC50 on a negative log10 scale, so that one unit is a factor of ten. A higher pEC50 goes with a low EC50. In the case of `CCCCCCCCCCCCCC(=O)NCCOCCOCCNC(=O)CSC[C@H](NC(=O)[C@H](Cc1c[nH]c2ccccc12)NC(=O)[C@@H](NC(=O)[C@H](CO)NC(=O)[C@H](CCSC)NC(=O)CNC(=O)[C@@H]1CSSC[C@@H](C(=O)O)NC(=O)[C@H](Cc2ccccc2)NC(=O)[C@H](CCCNC(=N)N)NC(=O)[C@H](C)NC(=O)[C@H](CC(C)C)NC(=O)[C@H](CO)NC(=O)[C@H](CCCNC(=N)N)NC(=O)[C@H](CCCCN)NC(=O)[C@H]([C@@H](C)O)NC(=O)[C@@H]2CSSC[C@H](NC(=O)[C@H](CCCCN)NC(=O)[C@H](CC(N)=O)NC(=O)[C@H](C)NC(=O)[C@H](CC(C)C)NC(=O)[C@H](C)NC(=O)[C@H](CO)NC(=O)[C@H](Cc3ccc(O)cc3)NC(=O)[C@H](CC(C)C)NC(=O)[C@@H](N)CCC(N)=O)C(=O)N[C@@H](CSSC[C@H](NC(=O)[C@H](CC(C)C)NC(=O)[C@H](CCCCN)NC(=O)[C@@H](NC(=O)[C@@H](NC(=O)[C@H](CCC(=O)O)NC(=O)[C@H](CCC(=O)O)NC(=O)[C@H](CCSC)NC(=O)[C@H](Cc3c[nH]c4ccccc34)NC(=O)[C@H](CO)NC(=O)[C@H](CC(=O)O)NC(=O)CNC(=O)CNC(=O)[C@H](CO)NC(=O)CNC(=O)[C@H](CCC(N)=O)NC(=O)[C@H](Cc3ccccc3)NC(=O)[C@H](Cc3ccc(O)cc3)NC(=O)[C@H](CC(C)C)NC(=O)[C@H](CC(N)=O)NC(=O)[C@H](CCC(=O)O)NC(=O)[C@H](Cc3c[nH]cn3)NC(=O)[C@H](Cc3c[nH]cn3)NC(=O)[C@H](Cc3c[nH]cn3)NC(=O)[C@H](Cc3c[nH]cn3)NC(=O)[C@H](Cc3c[nH]cn3)NC(=O)[C@H](Cc3c[nH]cn3)NC(=O)[C@H](Cc3c[nH]cn3)NC(=O)[C@@H](N)Cc3c[nH]cn3)C(C)C)[C@@H](C)CC)C(=O)NCC(=O)N[C@@H](CCCNC(=N)N)C(=O)N[C@@H](CCC(=O)O)C(=O)N[C@@H](CC(C)C)C(=O)N[C@@H](C(C)C)C(=O)N[C@@H](CCCNC(=N)N)C(=O)N[C@@H](C)C(=O)N[C@@H](CCC(N)=O)C(=O)N[C@@H]([C@@H](C)CC)C(=O)N[C@@H](C)C(=O)N[C@@H]([C@@H](C)CC)C(=O)N1)C(=O)N[C@@H](Cc1c[nH]cn1)C(=O)N[C@@H](C(C)C)C(=O)NCC(=O)N2)[C@@H](C)O)C(=O)O` [Tev-Relaxin-B-S29C-FA1], on LGR7, the pEC50 is 9.00. The term half-life denotes the time needed for the level to fall by half in the phase considered. As to `CC[C@H](C)[C@@H]1NC(=O)[C@H](C)NC(=O)[C@H]([C@@H](C)CC)NC(=O)[C@H](CCC(N)=O)NC(=O)[C@H](C)NC(=O)[C@H](CCCNC(=N)N)NC(=O)[C@H](C(C)C)NC(=O)[C@H](CC(C)C)NC(=O)[C@H](CCC(=O)O)NC(=O)[C@H](CCCNC(=N)N)NC(=O)CNC(=O)[C@@H](NC(=O)[C@H](CC(C)C)NC(=O)[C@H](CCCCN)NC(=O)[C@@H](NC(=O)[C@@H](NC(=O)[C@H](CCC(=O)O)NC(=O)[C@H](CCC(=O)O)NC(=O)[C@H](CCSC)NC(=O)[C@H](Cc2c[nH]c3ccccc23)NC(=O)[C@H](CO)NC(=O)[C@H](C)N)C(C)C)[C@@H](C)CC)CSSC[C@@H]2NC(=O)[C@@H](NC(=O)[C@H](CCCCN)NC(=O)[C@H](CC(N)=O)NC(=O)[C@H](C)NC(=O)[C@H](CC(C)C)NC(=O)[C@H](C)NC(=O)[C@H](CO)NC(=O)[C@H](Cc3ccc(O)cc3)NC(=O)[C@H](CC(C)C)NC(=O)[C@@H](N)CSCC(=O)NCCOCCOCCC(=O)NCCOCCOCCC(=O)NCCCC[C@H](NC(=O)CCCCCCCCCCCCCCCCC(=O)O)C(=O)O)CSSC[C@H](NC(=O)CNC(=O)[C@H](C(C)C)NC(=O)[C@H](Cc3c[nH]cn3)NC2=O)C(=O)N[C@@H]([C@@H](C)O)C(=O)N[C@@H](CCCCN)C(=O)N[C@@H](CCCNC(=N)N)C(=O)N[C@@H](CO)C(=O)N[C@@H](CC(C)C)C(=O)N[C@@H](C)C(=O)N[C@@H](CCCNC(=N)N)C(=O)N[C@@H](Cc2ccccc2)C(=O)N[C@H](C(=O)O)CSSC[C@@H](C(=O)NCC(=O)N[C@@H](CCSC)C(=O)N[C@@H](CO)C(=O)N[C@H](C(=O)N[C@@H](Cc2c[nH]c3ccccc23)C(=O)N[C@@H](CO)C(=O)O)[C@@H](C)O)NC1=O` [Relaxin-B-D1A, A-Q1C-FA2], the half-life was 3.5 h in series [1] (setting [2]) and 7.8 h in series [1] (setting [3]). For `CCCCCCCCCCCCCC(=O)NCCOCCOCCNC(=O)CSC[C@H](NC(=O)[C@H](Cc1c[nH]c2ccccc12)NC(=O)[C@@H](NC(=O)[C@H](CO)NC(=O)[C@H](CCSC)NC(=O)CNC(=O)[C@@H]1CSSC[C@@H](C(=O)O)NC(=O)[C@H](Cc2ccccc2)NC(=O)[C@H](CCCNC(=N)N)NC(=O)[C@H](C)NC(=O)[C@H](CC(C)C)NC(=O)[C@H](CO)NC(=O)[C@H](CCCNC(=N)N)NC(=O)[C@H](CCCCN)NC(=O)[C@H]([C@@H](C)O)NC(=O)[C@@H]2CSSC[C@H](NC(=O)[C@H](CCCCN)NC(=O)[C@H](CC(N)=O)NC(=O)[C@H](C)NC(=O)[C@H](CC(C)C)NC(=O)[C@H](C)NC(=O)[C@H](CO)NC(=O)[C@H](Cc3ccc(O)cc3)NC(=O)[C@H](CC(C)C)NC(=O)[C@@H](N)CCC(N)=O)C(=O)N[C@@H](CSSC[C@H](NC(=O)[C@H](CC(C)C)NC(=O)[C@H](CCCCN)NC(=O)[C@@H](NC(=O)[C@@H](NC(=O)[C@H](CCC(=O)O)NC(=O)[C@H](CCC(=O)O)NC(=O)[C@H](CCSC)NC(=O)[C@H](Cc3c[nH]c4ccccc34)NC(=O)[C@H](CO)NC(=O)[C@H](C)N)C(C)C)[C@@H](C)CC)C(=O)NCC(=O)N[C@@H](CCCNC(=N)N)C(=O)N[C@@H](CCC(=O)O)C(=O)N[C@@H](CC(C)C)C(=O)N[C@@H](C(C)C)C(=O)N[C@@H](CCCNC(=N)N)C(=O)N[C@@H](C)C(=O)N[C@@H](CCC(N)=O)C(=O)N[C@@H]([C@@H](C)CC)C(=O)N[C@@H](C)C(=O)N[C@@H]([C@@H](C)CC)C(=O)N1)C(=O)N[C@@H](Cc1c[nH]cn1)C(=O)N[C@@H](C(C)C)C(=O)NCC(=O)N2)[C@@H](C)O)C(=O)O` [Relaxin-B-D1AS29C-FA1], in that order: 0.5 h and 1.2 h.

Turning to “550-: Toxin-550 peptide, probably SEQ ID NO: 30 (ECIGMFKSCDPENDKCCKGRTCSRKHRWCKYKL) [Entry 550-]”, in the series with human Nav1.7, the “Activity: % block at 100 nM” value is on record as 87% block.
